In the supplement of paper PMC12783771:
± gives the standard deviation of the averaged measurements.

B1: library; numbered along this chain (parent)
chain: MNIQIGELAKRTACPVVTIRFYEQEGLLPPPGRSRGNFRLYGEEHVERLQFIRHCRSLDMPLSDVRTLLSYRKRPDQDCGEVNMLLDEHIRQVESRIGALLELKHHLVELREACSGARPAQSCGILQGLSDCVCDTRGTTAHPSD

What was measured:
[1] = variants of: B1; assay: sfGFP reporter fluorescence (15 h) (µM FITC); higher = higher leak; conditions: library round: Round 1; ligand: none
Summary of the method: (§1)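 Readout was endpoint sfGFP fluorescence, converted to µM FITC through standard curves. Reactions were 1 μL of BL21 Star (DE3) PANOx-SP extract with pPbrR-sfGFP reporter, 30 μg/mL GamS and linear PbrR templates normalized to 5 nM, containing 1 µM lead chloride, 30 µM zinc acetate or no metal. Incubation lasted 15 hr at 30 °C, with up to three biological replicates.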

[2] = variants of: B1; assay: sfGFP reporter fluorescence (15 h) (µM FITC); higher = stronger transcriptional activation; conditions: library round: Round 1
Summary of the method: as §1

[3] = variants of: B1; assay: sfGFP reporter fluorescence (15 h) (µM FITC); higher = higher leak; conditions: library round: Round 0; ligand: none
Protocol: (§2)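 Cell-free (BL21 Star DE3 extract, PANOx-SP) biosensing: 1 µL Echo-assembled reactions with linear PbrR variant templates (5 nM) and pPbrR-sfGFP reporter, with 1 µM Pb (lead chloride), 30 µM Zn (zinc acetate) or no ligand; endpoint sfGFP fluorescence after 15 h at 30 °C, calibrated as µM FITC. Round 0 library (alanine scan, site saturation, combinatorial) of PbrR from Cupriavidus metallidurans; 2 biological replicates.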

[4] = variants of: B1; assay: sfGFP reporter fluorescence (15 h) (µM FITC); higher = stronger transcriptional activation; conditions: library round: Round 0
Protocol: as §2

| Variant | sfGFP reporter fluorescence [1] | sfGFP reporter fluorescence ([2]; ligand: 1 µM Pb) | sfGFP reporter fluorescence ([2]; ligand: 30 µM Zn) | sfGFP reporter fluorescence [3] | sfGFP reporter fluorescence ([4]; ligand: 1 µM Pb) | sfGFP reporter fluorescence ([4]; ligand: 30 µM Zn) |
| --- | --- | --- | --- | --- | --- | --- |
| D64K R111A | 0.112 ± 0.0044 | 0.382 ± 0.052 | 1.83 ± 0.27 | – | – | – |
| P61N C134V | 0.095 ± 0.0057 | 0.189 ± 0.051 | 1.26 ± 0.21 | – | – | – |
| N83T L107C D135A P143T | 0.1501 ± 0.0015 | 0.642 ± 0.046 | 1.85 ± 0.12 | – | – | – |
| H105E | 0.0625 ± 0.0011 | 0.06829 ± 0.00056 | 0.31 ± 0.016 | – | – | – |
| D64I R111L | 0.0903 ± 0.0015 | 0.254 ± 0.032 | 1.39 ± 0.12 | – | – | – |
| G128I D135P | 0.074 ± 0.0013 | 0.172 ± 0.013 | 0.904 ± 0.084 | – | – | – |
| D131A C134V | 0.0781 ± 0.0011 | 0.12 ± 0.0056 | 1.24 ± 0.15 | – | – | – |
| D131T V133P | 0.0641 ± 0.0013 | 0.0767 ± 0.0042 | 0.395 ± 0.036 | – | – | – |
| N83T D131A P143L | 0.0646 ± 0.0011 | 0.0895 ± 0.002 | 0.161 ± 0.012 | – | – | – |
| N83T D131A P143I | 0.0661 ± 0.0015 | 0.088 ± 0.0036 | 0.158 ± 0.014 | – | – | – |
| P61D D64K L107C G128M | 1.99 ± 0.49 | 2.06 ± 0.23 | 2.38 ± 0.037 | – | – | – |
| M60L D64K K104T | 0.5087 ± 0.0029 | 1.14 ± 0.23 | 2.22 ± 0.29 | – | – | – |
| R96A K104V G128M | 0.0678 ± 0.0023 | 0.0902 ± 0.0061 | 0.257 ± 0.008 | – | – | – |
| L129V D135A | 0.0641 ± 0.00097 | 0.0619 ± 0.003 | 0.0639 ± 0.0027 | – | – | – |
| L107C G128I D131C | 0.657 ± 0.018 | 1.26 ± 0.22 | 1.77 ± 0.23 | – | – | – |
| D135S P143W | 0.0694 ± 0.00085 | 0.0798 ± 0.0084 | 0.355 ± 0.051 | – | – | – |
| R20V | – | – | – | 0.0623 ± 0.00052 | 0.0618 ± 0.0023 | 0.0627 ± 0.0026 |
| N83T L107C G128M | 0.432 ± 0.012 | 1.31 ± 0.1 | 2.39 ± 0.53 | – | – | – |
| N83S E112L | 0.0612 ± 0.0034 | 0.0759 ± 0.0016 | 0.152 ± 0.006 | – | – | – |
| N83T P143W | 0.0657 ± 0.0018 | 0.07806 ± 0.00064 | 0.131 ± 0.0017 | – | – | – |
| V16G | – | – | – | 0.0594 ± 0.0026 | 0.0812 ± 0.0018 | 0.493 ± 0.014 |
| N83T C134L | 0.0568 ± 0.0011 | 0.0739 ± 0.003 | 0.159 ± 0.025 | – | – | – |

| Variant | sfGFP reporter fluorescence [1] | sfGFP reporter fluorescence ([2]; ligand: 1 µM Pb) | sfGFP reporter fluorescence ([2]; ligand: 30 µM Zn) | sfGFP reporter fluorescence [3] | sfGFP reporter fluorescence ([4]; ligand: 1 µM Pb) | sfGFP reporter fluorescence ([4]; ligand: 30 µM Zn) |
| --- | --- | --- | --- | --- | --- | --- |
| P61N V108M | 0.07 ± 0.0013 | 0.122 ± 0.0096 | 0.698 ± 0.094 | – | – | – |
| D64L K104V L107R | 0.0627 ± 0.0017 | 0.0614 ± 0.0042 | 0.0593 ± 0.0044 | – | – | – |
| P61N D64K D135A | 0.123 ± 0.0068 | 0.376 ± 0.011 | 1.33 ± 0.12 | – | – | – |
| N83F P143K | 0.0612 ± 0.00097 | 0.0718 ± 0.0033 | 0.0627 ± 0.00097 | – | – | – |
| N83T D135V P143A | 0.0633 ± 0.0021 | 0.0745 ± 0.0035 | 0.189 ± 0.0083 | – | – | – |
| P61N D64T D131C | 0.139 ± 0.011 | 0.315 ± 0.076 | 1.1 ± 0.12 | – | – | – |
| M60F P61N D64K | 0.624 ± 0.057 | 1.61 ± 0.059 | 1.82 ± 0.16 | – | – | – |
| D64A D135R | 0.0876 ± 0.00097 | 0.18 ± 0.034 | 1.55 ± 0.021 | – | – | – |
| M60L P61N D64K D131C | 0.194 ± 0.0087 | 0.7 ± 0.062 | 1.15 ± 0.26 | – | – | – |
| L85I P143M | 0.058 ± 0.0019 | 0.0691 ± 0.0018 | 0.401 ± 0.029 | – | – | – |
| D64S E109H | 0.0794 ± 0.0043 | 0.193 ± 0.0059 | 1 ± 0.12 | – | – | – |
| D64G N83S D135A | 0.0656 ± 0.00097 | 0.0915 ± 0.002 | 0.292 ± 0.0096 | – | – | – |
| N83Y R111A | 0.064 ± 0.00092 | 0.0721 ± 0.0067 | 0.0742 ± 0.00085 | – | – | – |
| M60L D64K K104V L107C G128I | 1.95 ± 0.25 | 2.02 ± 0.3 | 2.61 ± 0.17 | – | – | – |
| R111F E112A | 0.05962 ± 0.00021 | 0.0657 ± 0.00092 | 0.22 ± 0.021 | – | – | – |
| M60L D64K D135S | 0.29 ± 0.02 | 0.662 ± 0.097 | 1.93 ± 0.17 | – | – | – |
| E81Q | 0.0605 ± 0.0017 | 0.0673 ± 0.0016 | 0.189 ± 0.022 | – | – | – |
| P61N D64K K104V L107C G128M | 0.854 ± 0.022 | 1.37 ± 0.39 | 2.24 ± 0.098 | – | – | – |
| P29L | 0.0608 ± 0.0015 | 0.0704 ± 0.0041 | 0.213 ± 0.0041 | – | – | – |
| D64T E88A C134E | 0.204 ± 0.031 | 0.238 ± 0.062 | 1.65 ± 0.15 | – | – | – |
| M60L D135A | 0.0914 ± 0.0019 | 0.258 ± 0.02 | 1.4 ± 0.16 | – | – | – |
| V108L R111L | 0.0611 ± 0.00085 | 0.0617 ± 0.0045 | 0.114 ± 0.0047 | – | – | – |
